The text below walks through data of the Immune Epitope Database (IEDB).

Some targets named below: HLA-A*02:03; HLA-A*02:02; HLA-A*02:06; HLA-A*03:01; HLA-A*11:01; HLA-A*31:01; HLA-A*33:01; HLA-A*68:01.
Common to all, as to assay: IEDB peptide-MHC binding, purified MHC/competitive/radioactivity; filed as Kd, often an IC50 or EC50 that approximates it; ≥ and ≤ were set here for values at or beyond the usual limits of such assays
The mark [1] stands for this setting: source organism: Dengue virus 3 Martinique/1243/1999.
The mark [2] stands for this setting: source organism: Vaccinia virus WR.
Where [3] appears, read: source organism: Dengue virus 2 Jamaica/1409/1983.
Where [4] appears, read: source organism: SARS coronavirus Tor2.
Where [5] appears, read: source organism: Mammarenavirus whitewaterense.
The mark [6] stands for this setting: source organism: Mammarenavirus machupoense.
Where [7] appears, read: source organism: Lassa virus Josiah.
[8] abbreviates: source organism: HIV-1 M:B_ARV2/SF2.
The mark [9] stands for this setting: source organism: Lymphocytic choriomeningitis virus (strain Armstrong).

In the case of QLCDHRLMSA, the equilibrium dissociation constant (Kd) – broadly, the concentration at which binding is half-saturated – in the assay with HLA-A*02:03 (setting [1]) was 54.2 nM.
On to VTDKTAYIGT, for which the Kd with HLA-A*02:02 (setting [2]) is no less than 21800 nM; with HLA-A*02:03 (setting [2]), 4000 nM; with HLA-A*02:06 (setting [2]), 227 nM.
On the same counts, the results for IASSMKGENV are 751 nM, 3240 nM and 311 nM.
On the same counts, the results for SQFSYKELYV are 14.1 nM, 27.2 nM and 71.4 nM.
Regarding RMGMGVTYL, in the assay with HLA-A*02:03 (setting [1]), the Kd was 115 nM.
Regarding SMFEPEREKV, the Kd with HLA-A*02:03 (setting [3]) amounted to 140 nM.
On to HAKYMVTDK, for which the Kd stood at 452 nM with HLA-A*03:01 (setting [2]); 5810 nM in the assay with HLA-A*11:01 (setting [2]); 5060 nM with HLA-A*31:01 (setting [2]); 14300 nM in the assay with HLA-A*33:01 (setting [2]); 180 nM with HLA-A*68:01 (setting [2]).
For the sequence NQATVLMGL, the Kd in the assay with HLA-A*02:06 (setting [3]) was 10.6 nM.
Take KFNDYRKQMY: the dissociation constant (Kd) with HLA-A*03:01 (setting [2]) was 4820 nM; with HLA-A*11:01 (setting [2]) it was no less than 22400 nM; in the assay with HLA-A*31:01 (setting [2]) it was 196 nM; with HLA-A*33:01 (setting [2]), no less than 59300 nM; with HLA-A*68:01 (setting [2]), no less than 32400 nM.
For VSMMSMYGK the same measures were 15.2 nM, 1.18 nM, 113 nM, no less than 23500 nM and 5 nM.
For MLIFNVKSK the same measures were 228 nM, 491 nM, no less than 21100 nM, no less than 45800 nM and 0.841 nM.
Regarding GFDAWFSQR, the Kd with HLA-A*03:01 (setting [4]) is 17800 nM; in the assay with HLA-A*11:01 (setting [4]), no less than 29900 nM; with HLA-A*31:01 (setting [4]), 131 nM; in the assay with HLA-A*33:01 (setting [4]), 654 nM; with HLA-A*68:01 (setting [4]), 4270 nM.
Regarding RSCSYKIGHH, the Kd with HLA-A*03:01 (setting [5]) was 3900 nM; with HLA-A*11:01 (setting [5]), 17200 nM; in the assay with HLA-A*31:01 (setting [5]), 294 nM; in the assay with HLA-A*33:01 (setting [5]) it was no less than 70000 nM; in the assay with HLA-A*68:01 (setting [5]) it was no less than 50900 nM.
For SLLRSTSQK, the Kd with HLA-A*03:01 (setting [4]) came out at 2.56 nM; in the assay with HLA-A*11:01 (setting [4]), 12.8 nM; with HLA-A*31:01 (setting [4]), 802 nM; with HLA-A*33:01 (setting [4]) it was 14700 nM; in the assay with HLA-A*68:01 (setting [4]), 3040 nM.
Turning to QQQGQTVTKK, the Kd was 6440 nM with HLA-A*03:01 (setting [4]); 407 nM in the assay with HLA-A*11:01 (setting [4]); 13700 nM with HLA-A*31:01 (setting [4]); no less than 70000 nM with HLA-A*33:01 (setting [4]); 8240 nM with HLA-A*68:01 (setting [4]).
On to YVNHTLTGQH, for which the Kd with HLA-A*03:01 (setting [6]) was no less than 70000 nM; with HLA-A*11:01 (setting [6]), no less than 69700 nM; with HLA-A*31:01 (setting [6]), no less than 70000 nM; in the assay with HLA-A*33:01 (setting [6]), 29.5 nM; with HLA-A*68:01 (setting [6]), no less than 70100 nM.
Turning to FLSGKGLGKT, the dissociation constant Kd with HLA-A*02:03 (source organism: Dengue virus 1 Brazil/97-11/1997) was found to be 32 nM.
As for VMKDGRVLV, in the assay with HLA-A*02:03 (setting [3]), the Kd is 50.7 nM.
Consider TLISSDGAR, for which the equilibrium dissociation constant (Kd) was 4090 nM with HLA-A*03:01 (setting [2]); 1400 nM with HLA-A*11:01 (setting [2]); 80.3 nM in the assay with HLA-A*31:01 (setting [2]); 198 nM with HLA-A*33:01 (setting [2]); 5.13 nM in the assay with HLA-A*68:01 (setting [2]).
Turning to SVLRAVLPR, the Kd worked out at 208 nM with HLA-A*03:01 (setting [7]); 8.96 nM with HLA-A*11:01 (setting [7]); 10.6 nM in the assay with HLA-A*31:01 (setting [7]); 537 nM with HLA-A*33:01 (setting [7]); 66.7 nM with HLA-A*68:01 (setting [7]).
HILHAYCGIK: the dissociation constant (Kd) with HLA-A*03:01 (setting [2]) was 229 nM; in the assay with HLA-A*11:01 (setting [2]), 1390 nM; in the assay with HLA-A*31:01 (setting [2]) it was 13500 nM; in the assay with HLA-A*33:01 (setting [2]), no less than 70000 nM; with HLA-A*68:01 (setting [2]), 2740 nM.
Regarding LVGPTPVNI, the Kd in the assay with HLA-A*02:02 (setting [8]) amounted to 38 nM; with HLA-A*02:03 (setting [8]) it was 17.6 nM.
Take KINSVKYYGR: the Kd was determined as 1870 nM with HLA-A*03:01 (setting [2]); 135 nM in the assay with HLA-A*11:01 (setting [2]); 30.2 nM in the assay with HLA-A*31:01 (setting [2]); 2420 nM in the assay with HLA-A*33:01 (setting [2]); 5340 nM with HLA-A*68:01 (setting [2]).
On the same counts, the results for RSDGYFLKIK are 10400 nM, 1560 nM, 5500 nM, no less than 70000 nM and no less than 70200 nM.
On the same counts, the results for RLNNPVILSK are 11.7 nM, 11.9 nM, 1550 nM, no less than 54900 nM and 4490 nM.
On to ATSSFREKSR, for which the Kd came out at 59.1 nM in the assay with HLA-A*03:01 (setting [2]); 1.38 nM with HLA-A*11:01 (setting [2]); 3.61 nM with HLA-A*31:01 (setting [2]); 163 nM in the assay with HLA-A*33:01 (setting [2]); 1.92 nM with HLA-A*68:01 (setting [2]).
In the case of DKYGWLCKMH, the Kd in the assay with HLA-A*03:01 (setting [9]) was no less than 70000 nM; in the assay with HLA-A*11:01 (setting [9]), no less than 69700 nM; with HLA-A*31:01 (setting [9]), no less than 59200 nM; with HLA-A*33:01 (setting [9]) it was no less than 70000 nM; with HLA-A*68:01 (setting [9]) it was no less than 70100 nM.
